The values below come from patent US20160136262A1.

The target in assay [1] is T1, H1-mini2-cluster1+5+6-GCN4 without leader sequence and with FLAG-thrombin-foldon-HIS. Kind of assay: ELISA/HTRF, P. pastoris; average. The settings on record: remark: other sources report otherwise. A general note: In an ELISA, binding on a coated surface is turned into a signal by an enzyme label.
Assay [2] addresses T1, H1-mini2-cluster1+5+6-GCN4 without …. Kind of assay: ELISA/HTRF, HEK293F; average. Conditions: remark: other sources report otherwise.

B1: CR6261 (antibody, V domains shown)
VH: EVQLVESGAEVKKPGSSVKVSCKASGGPFRSYAISWVRQAPGQGPEWMGGIIPIFGTTKYAPKFQGRVTITADDFAGTVYMELSSLRSEDTAMYYCAKHMGYQVRETMDVWGKGTTVTVSS
VL: QSVLTQPPSVSAAPGQKVTISCSGSSSNIGNDYVSWYQQLPGTAPKLLIYDNNKRPSGIPDRFSGSKSGTSATLGITGLQTGDEANYYCATWDRRPTAYVVFGGGTKLTVLG
For B1, in assay [1], the fold increase of ratio over parental SEQ ID NO: 6 came to 1 fold and the ratio binding signal/HTRF signal was determined as 5.94. Moreover, in assay [2], the fold increase of ratio over parental SEQ ID NO: 6 was found to be 1 fold and the ratio binding signal/HTRF signal was 17.4.
